Test results as given in patent US20250076311A1 (Chugai, published 2025).
Positions count from the first letter of the chain named. Names and notes keep the numbering of the source.

Legend:
[1] = target: T1, human FcγRIIb constitutively expressed on MDCK cells (human, UniProt P31994 43-310); test: cell-based or functional assay
T1 sequence (looked up): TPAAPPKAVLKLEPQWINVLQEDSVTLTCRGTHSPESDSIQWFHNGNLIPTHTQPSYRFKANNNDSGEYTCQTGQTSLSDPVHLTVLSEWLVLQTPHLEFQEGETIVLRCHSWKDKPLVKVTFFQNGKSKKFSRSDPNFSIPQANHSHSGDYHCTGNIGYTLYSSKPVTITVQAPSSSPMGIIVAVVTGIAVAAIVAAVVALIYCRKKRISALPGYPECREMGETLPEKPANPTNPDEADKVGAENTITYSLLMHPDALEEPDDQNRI

[2] = target: T2, cynomolgus monkey FcγRIIIaS extracellular domain with C-terminal His-tag (cynomolgus monkey, UniProt Q8SPW2 21-206 at identity 1.00)); test: SPR, antibody captured, FcγR analyte
T2 construct: also called cyno FcgRIIIaS; cynoFcγRIIIaS
T2 chain: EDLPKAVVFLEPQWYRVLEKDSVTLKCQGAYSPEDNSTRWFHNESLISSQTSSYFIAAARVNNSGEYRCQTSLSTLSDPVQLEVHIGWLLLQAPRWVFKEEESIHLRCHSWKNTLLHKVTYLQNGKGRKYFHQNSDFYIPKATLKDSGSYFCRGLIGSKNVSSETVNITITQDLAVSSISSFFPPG

[3] = target: T3, human FcγRIIaR extracellular domain with C-terminal His-tag (human, UniProt P12318 34-217); test: SPR, antibody captured, FcγR analyte
T3 construct: also called human FcgRIIaR; FcγRIIa (type R)
T3 chain: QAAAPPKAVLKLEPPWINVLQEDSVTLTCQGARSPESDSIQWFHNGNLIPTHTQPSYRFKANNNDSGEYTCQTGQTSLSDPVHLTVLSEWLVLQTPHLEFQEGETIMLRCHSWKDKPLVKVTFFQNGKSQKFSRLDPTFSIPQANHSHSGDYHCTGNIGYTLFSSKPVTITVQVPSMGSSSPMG

[4] = target: T4, soluble mouse FcγRII, His-tagged (mouse, UniProt P08101 30-210, limits assumed); test: SPR, mouse FcγRII captured via His-tag, antigen-antibody complex injected, pH 7.4, 25 C
T4 construct: Captured on the chip through an anti-His antibody
T4 sequence (looked up): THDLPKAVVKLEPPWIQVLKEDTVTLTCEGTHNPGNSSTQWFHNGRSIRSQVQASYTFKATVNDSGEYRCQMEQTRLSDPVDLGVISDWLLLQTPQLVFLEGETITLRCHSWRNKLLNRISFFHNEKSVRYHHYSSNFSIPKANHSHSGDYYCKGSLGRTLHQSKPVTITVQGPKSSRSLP
Procedure, shortened: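 Biacore T200; His-tagged soluble FcγRII captured on an anti-His antibody chip, then antibody–antigen complexes injected. Running buffer 20 mM ACES, 150 mM NaCl, 1.2 mM CaCl₂, 0.05% Tween 20, pH 7.4; regeneration with 10 mM glycine-HCl pH 1.5; all at 25° C.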

[5] = target: T3, human FcγRIIaR extracellular domain …; test: SPR, KD(SG1)/KD(variant)
[6] = target: T5, human FcγRIIIaV extracellular domain with C-terminal His-tag (human, UniProt P08637 17-208); test: SPR, KD(SG1)/KD(variant)
T5 construct: also called human FcgRIIIaV
T5 sequence (P08637 17-208 F176V): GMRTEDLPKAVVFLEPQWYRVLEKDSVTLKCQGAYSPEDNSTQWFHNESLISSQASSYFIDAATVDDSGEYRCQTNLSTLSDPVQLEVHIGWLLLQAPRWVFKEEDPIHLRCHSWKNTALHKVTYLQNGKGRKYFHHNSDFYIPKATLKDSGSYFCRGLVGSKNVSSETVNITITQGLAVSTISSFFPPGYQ

[7] = target: T2, cynomolgus monkey FcγRIIIaS …; test: SPR, KD(SG1)/KD(variant)
[8] = target: T6, cynomolgus monkey FcγRIIb extracellular domain with C-terminal His-tag (cynomolgus monkey); test: SPR (Biacore), KD of SG1 divided by KD of variant
T6 construct: also called cyno FcgRIIb; cynoFcγRIIb
T6 chain: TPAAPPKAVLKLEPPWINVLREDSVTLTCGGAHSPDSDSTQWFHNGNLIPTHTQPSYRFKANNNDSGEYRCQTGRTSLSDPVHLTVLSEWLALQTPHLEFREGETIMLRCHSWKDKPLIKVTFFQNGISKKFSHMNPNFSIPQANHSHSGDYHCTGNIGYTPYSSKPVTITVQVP

[9] = target: T7, cynomolgus monkey FcγRIIIaS extracellular domain with C-terminal His-tag (cynomolgus monkey, UniProt Q8SPW2 21-206 at identity 1.00)); test: SPR (Biacore), KD of SG1 divided by KD of variant
T7 construct: also called cyno FcgRIIIaS; cynoFcγRIIIaS
T7 chain: T2 chain

[10] = target: T8, human FcγRIIaR extracellular domain with C-terminal His-tag (human, UniProt P12318 34-217); test: SPR (Biacore), KD of SG1 divided by KD of variant
T8 construct: also called human FcgRIIaR; FcγRIIa (type R)
T8 chain: T3 chain

[11] = target: T9, human FcγRIIIaV extracellular domain with C-terminal His-tag (human, UniProt P08637 17-208); test: SPR (Biacore), KD of SG1 divided by KD of variant
T9 construct: also called human FcgRIIIaV
T9 sequence (P08637 17-208 F176V): as the sequence (P08637 17-208 F176V) above

[12] = target: T10, human FcγRIIb extracellular domain with C-terminal His-tag (human, UniProt P31994 43-217); test: SPR, KD(SG1)/KD(variant)
T10 construct: also called human FcgRIIb
T10 sequence: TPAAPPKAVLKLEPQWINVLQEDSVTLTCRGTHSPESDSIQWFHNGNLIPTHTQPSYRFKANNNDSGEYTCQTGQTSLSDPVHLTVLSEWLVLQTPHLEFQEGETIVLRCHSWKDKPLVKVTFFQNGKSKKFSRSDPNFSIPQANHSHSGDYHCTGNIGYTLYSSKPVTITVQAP

[13] = target: T11, cynomolgus monkey FcγRIIb extracellular domain with C-terminal His-tag (cynomolgus monkey); test: SPR, KD(SG1)/KD(variant)
T11 construct: also called cyno FcgRIIb; cynoFcγRIIb
T11 chain: T6 chain

[14] = target: T12, cynomolgus monkey FcγRIIa1 extracellular domain with C-terminal His-tag (cynomolgus monkey); test: SPR, KD(SG1)/KD(variant)
T12 construct: also called cyno FcgRIIa1; cynoFcγRIIa1
T12 chain: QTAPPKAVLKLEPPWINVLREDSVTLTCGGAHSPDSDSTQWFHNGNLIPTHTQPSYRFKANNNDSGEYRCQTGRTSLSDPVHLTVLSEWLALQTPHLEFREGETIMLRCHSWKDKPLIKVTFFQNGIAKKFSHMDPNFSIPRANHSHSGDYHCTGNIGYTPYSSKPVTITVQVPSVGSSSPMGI
Protocol: (§1) The kinetic analysis of interactions between these antibodies and FcγR was carried out using BIACORE® T200 or BIACORE® 4000 (GE Healthcare). HBS-EP+ (GE Healthcare) was used as the running buffer, and the measurement temperature was set to 25° C. […] After the measurement, the antibody captured on the chip was washed off by allowing reaction with 10 mM glycine-HCl, pH1.5 and 25 mM NaOH so that the chip was regenerated and used repeatedly. The sensorgrams obtained as measurement results were analyzed by the 1:1 Langmuir binding model using the BIACORE® Evaluation Software to calculate the binding rate constant ka (L/mol/s) and dissociation rate constant kd (1/s), and the dissociation constant KD (mol/L) was calculated from these values. […] Regarding such interactions, KD values were calculated using the following 1:1 binding model described in BIACORE® T100 Software Handbook BR1006-48 Edition AE.

[15] = target: T13, cynomolgus monkey FcγRIIa2 extracellular domain with C-terminal His-tag (cynomolgus monkey); test: SPR, KD(SG1)/KD(variant)
T13 construct: also called cyno FcgRIIa2; cynoFcγRIIa2
T13 chain: T12 chain with P95T, T121A, I127K, A128S, K130N, D135N, R142Q
Protocol: as §1

[16] = target: T2, cynomolgus monkey FcγRIIIaS …; test: SPR, KD(SG1)/KD(variant)
Protocol: as §1

[17] = target: T5, human FcγRIIIaV extracellular domain …; test: SPR, KD(SG1)/KD(variant); remark: listed apart in the source
Protocol: as §1

B1: MS1032LO06-SG1 (antibody, human IgG1, kappa)
heavy: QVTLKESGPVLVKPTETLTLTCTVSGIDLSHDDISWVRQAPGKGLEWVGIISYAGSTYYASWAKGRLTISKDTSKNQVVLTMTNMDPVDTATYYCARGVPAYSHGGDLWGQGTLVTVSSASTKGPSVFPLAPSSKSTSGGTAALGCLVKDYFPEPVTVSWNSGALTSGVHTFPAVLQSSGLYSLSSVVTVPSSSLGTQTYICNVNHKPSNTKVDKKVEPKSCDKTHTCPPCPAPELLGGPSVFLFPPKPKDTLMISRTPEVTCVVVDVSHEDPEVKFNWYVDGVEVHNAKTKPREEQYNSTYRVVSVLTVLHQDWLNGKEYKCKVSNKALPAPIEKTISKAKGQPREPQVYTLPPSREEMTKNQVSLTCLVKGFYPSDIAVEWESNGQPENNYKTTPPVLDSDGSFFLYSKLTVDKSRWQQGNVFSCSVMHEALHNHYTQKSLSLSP
light: DIVMTQSPATLSLSPGERATLSCTSSQSVYHANWLSWFQQKPGQPPKLLIYWASTLAYGVPSRFSGSGSGTDFTLTISSLQPEDAATYYCAGGYGGGRYAFGQGTKVEIKRTVAAPSVFIFPPSDEQLKSGTASVVCLLNNFYPREAKVQWKVDNALQSGNSQESVTEQDSKDSTYSLSSTLTLSKADYEKHKVYACEVTHQGLSSPVTKSFNRGEC
notes: also called M103205H795-SG1; copies: 2 + 2
With B1 the “celluar uptake (labelled human latent myostatin taken up as antigen-antibody complex)” value [1] was 1 relative to SG1 = 1.00, the Kd [2] was 0.26 µM and the Kd [3] was 10 µM. For the same binder, the “biacore IC binding (relative, SG1 = 1.00)” value [4] was 1 relative to SG1.

B2: M103205H795-MY532/M103202L889-SK1 (antibody, human IgG1, kappa, name in EU numbering)
heavy: QVTLKESGPVLVKPTETLTLTCTVSGIDLSHDDISWVRQAPGKGLEWVGIISYAGSTYYASWAKGRLTISKDTSKNQVVLTMTNMDPVDTATYYCARGVPAYSHGGDLWGQGTLVTVSSASTKGPSVFPLAPSSKSTSGGTAALGCLVKDYFPEPVTVSWNSGALTSGVHTFPAVLQSSGLYSLSSVVTVPSSSLGTQTYICNVNHKPSNTKVDKKVEPKSCDKTHTCPPCPAPEWLTGPVVFLFPPKPKDTLMISRTPEVTCVVVDVSDEDPEVKFNWYVDGVEVHNAKTKPREEQYNSTYRVVSVLTVLHQDWLNGKEYKCKVSNKALPKPIEKTISKAKGQPREPQVYTLPPSREEMTKNQVSLTCLVKGFYPSDIAVEWESNGQPENNYKTTPPVLDSDGSFFLYSKLTVDKSRWQQGNVFSCSVMHEALHNHYTQKSLSLSP
light: B1 light
notes: copies: 2 + 2
In the case of B2, the “KD fold (SG1 = 1)” value [5] is reported as 5.8 fold and the “KD fold (SG1 = 1)” value [6] is reported as 0.48 fold.

B3: M103205H795-MY534/M103202L889-SK1 (antibody, human IgG1, kappa, name in EU numbering)
heavy: B2 heavy with W236L, Q297L
light: B1 light
notes: copies: 2 + 2
For B3, the “KD fold (SG1 = 1)” value [7] was 0.22 fold, the “KD fold (SG1 = 1)” value [5] was 5.8 fold and the “KD fold (SG1 = 1)” value [6] was 0.15 fold.

B4: M103205H795-MY514 / M103202L889-SK1 (antibody)
heavy: B2 heavy with W236L, S300L
light: B1 light
notes: 'S258L' copied as printed, probably S298L
In the case of B4, the “KD fold (SG1 = 1)” value [8] is reported as 2.6 fold, the “KD fold (SG1 = 1)” value [9] is reported as 0.05 fold and the “KD fold (SG1 = 1)” value [10] is reported as 6.9 fold. For the same binder, the “KD fold (SG1 = 1)” value [11] was 0.09 fold.

B5: M103205H795-MY531/M103202L889-SK1 (antibody, human IgG1, kappa, name in EU numbering)
heavy: B2 heavy with V241S, K328T
light: B1 light
notes: copies: 2 + 2
For B5, the “KD fold (SG1 = 1)” value [12] was 3.1 fold and the “KD fold (SG1 = 1)” value [6] was 0.28 fold.

B6: M103205H795-MY533/M103202L889-SK1 (antibody, human IgG1, kappa, name in EU numbering)
heavy: B2 heavy with Q297L
light: B1 light
notes: copies: 2 + 2
For B6, the “KD fold (SG1 = 1)” value [13] was 7.7 fold, the “KD fold (SG1 = 1)” value [7] was 0.33 fold and the “KD fold (SG1 = 1)” value [12] was 4.8 fold.

B7: M103205H795-MY537/M103202L889-SK1 (antibody, human IgG1, kappa, name in EU numbering)
heavy: B2 heavy with A233G, Q297L
light: B1 light
notes: copies: 2 + 2
With B7 the “KD fold (SG1 = 1)” value [13] was 5.6 fold and the “KD fold (SG1 = 1)” value [7] was 0.24 fold.

B8: MS1032LO06-PK57 (antibody, human IgG1, kappa)
heavy: B2 heavy with W236L, T238N, V241S, Q313R, N386R, D415R
light: B1 light
notes: MY201 with Q311R/N384R/D413R; also called MS103205H795-PK57; M103205H795-MY57; copies: 2 + 2
With B8 the “KD fold (SG1 = 1)” value [14] was 2.3 fold, the “KD fold (SG1 = 1)” value [15] was 2 fold and the “KD fold (SG1 = 1)” value [16] was 0.06 fold. For the same binder, the “KD fold (SG1 = 1)” value [17] was 0.07 fold, the Kd [2] was 4.3 µM and the Kd [3] was 22 µM.
